This note sets out measurements from patent publication US20220411504A1 (Janssen / Centocor, published 2022).

The target of assay [1] is HLA-G on cells (K562-HLA-G and HLA-G expressing tumor cells) (human). In words: cell-based or functional assay.
Assay [2] deals with T1, Human CD3 epsilon (CD3ε) of the T cell receptor complex on cells (human, UniProt P07766 23-207).
T1 construct: On Jurkat cells and primary human (pan) T cells; also called T-cell surface glycoprotein CD3 epsilon chain; T3E
In words: flow cytometry, E. coli supernatant on human T cells.

Assay [3] addresses T2, CD3W147 (homodimeric CD3εγ-Fc) (human, biotinylated).
T2 construct: also called recombinant CD3
T2 chain: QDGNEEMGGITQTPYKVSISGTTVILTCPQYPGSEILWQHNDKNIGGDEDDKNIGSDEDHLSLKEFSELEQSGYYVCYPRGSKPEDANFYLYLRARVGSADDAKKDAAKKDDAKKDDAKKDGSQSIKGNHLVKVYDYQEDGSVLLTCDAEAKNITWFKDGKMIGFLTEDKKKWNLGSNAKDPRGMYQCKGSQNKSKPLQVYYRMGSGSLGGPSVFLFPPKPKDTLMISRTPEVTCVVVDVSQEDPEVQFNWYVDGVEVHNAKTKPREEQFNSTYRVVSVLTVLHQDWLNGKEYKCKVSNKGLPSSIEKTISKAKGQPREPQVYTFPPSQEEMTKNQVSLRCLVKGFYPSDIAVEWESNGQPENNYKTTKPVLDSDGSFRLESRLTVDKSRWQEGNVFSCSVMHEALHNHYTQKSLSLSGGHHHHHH
Description: ELISA, E. coli supernatant (heated to 60° C., cooled) on biotinylated CD3W147.

T1 sequence (P07766 23-207 limits assumed, one chain of several): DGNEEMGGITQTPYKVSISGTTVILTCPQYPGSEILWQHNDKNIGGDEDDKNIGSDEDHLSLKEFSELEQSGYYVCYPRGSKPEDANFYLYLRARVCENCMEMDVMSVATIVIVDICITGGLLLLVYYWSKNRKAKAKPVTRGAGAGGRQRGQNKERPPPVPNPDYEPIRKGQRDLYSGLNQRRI

B1: HC3B238 (bispecific antibody, human IgG1, kappa, L234A L235A)
scFv: EVQLVESGGGLVKPGGSLRLSCAASGFTFSRYNMNWVRQAPGKGLEWVSSISTSSNYIYYADSVKGRFTFSRDNAKNSLDLQMSGLRAEDTAIYYCTRGWGPFDYWGQGTLVTVSSGGSEGKSSGSGSESKSTGGSDIQMTQSPSSLSASVGDRVTITCRARQSIGTAIHWYQQKPGKAPKLLIKYASESISGVPSRFSGSGSGTDFTLTISSVQPEDFATYYCQQSGSWPYTFGQGTKLEIKEPKSSDKTHTCPPCPAPEAAGGPSVFLFPPKPKDTLMISRTPEVTCVVVSVSHEDPEVKFNWYVDGVEVHNAKTKPREEQYNSTYRVVSVLTVLHQDWLNGKEYKCKVSNKALPAPIEKTISKAKGQPREPQVYVYPPSREEMTKNQVSLTCLVKGFYPSDIAVEWESNGQPENNYKTTPPVLDSDGSFALVSKLTVDKSRWQQGNVFSCSVMHEALHNHYTQKSLSLSPGK
heavy: QVQLQQSGPGLVKPSQTLSLTCAISGDSVSSNRAAWNWIRQSPSRGLEWLGRTYYRSKWYNDYAVSVKSRITINPDTSKNQISLQLNSVTPEDTAVYYCARVRPGIPFDYWGQGTPVTVSSASTKGPSVFPLAPSSKSTSGGTAALGCLVKDYFPEPVTVSWNSGALTSGVHTFPAVLQSSGLYSLSSVVTVPSSSLGTQTYICNVNHKPSNTKVDKKVEPKSCDKTHTCPPCPAPEAAGGPSVFLFPPKPKDTLMISRTPEVTCVVVSVSHEDPEVKFNWYVDGVEVHNAKTKPREEQYNSTYRVVSVLTVLHQDWLNGKEYKCKVSNKALPAPIEKTISKAKGQPREPQVYVLPPSREEMTKNQVSLLCLVKGFYPSDIAVEWESNGQPENNYLTWPPVLDSDGSFFLYSKLTVDKSRWQQGNVFSCSVMHEALHNHYTQKSLSLSPG
light: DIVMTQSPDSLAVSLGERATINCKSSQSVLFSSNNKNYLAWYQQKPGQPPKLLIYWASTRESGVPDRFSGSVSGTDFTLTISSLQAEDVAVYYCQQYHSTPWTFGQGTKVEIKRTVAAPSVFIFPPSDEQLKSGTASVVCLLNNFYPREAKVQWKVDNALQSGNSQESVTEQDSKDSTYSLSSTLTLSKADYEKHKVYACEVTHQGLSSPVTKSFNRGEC
Regarding B1, in assay [1], the “Cytotoxicity, EC50 (T cell-mediated, NCI-H2009-b2m target cells, 72 hr)” value (“Cytotoxicity, EC50” for short) came to 0.0173 nM.

B2: HC3B237 (bispecific antibody, human IgG1, kappa, L234A L235A)
scFv: DIQMTQSPSSLSASVGDRVTITCRARQSIGTAIHWYQQKPGKAPKLLIKYASESISGVPSRFSGSGSGTDFTLTISSVQPEDFATYYCQQSGSWPYTFGQGTKLEIKGGSEGKSSGSGSESKSTGGSEVQLVESGGGLVKPGGSLRLSCAASGFTFSRYNMNWVRQAPGKGLEWVSSISTSSNYIYYADSVKGRFTFSRDNAKNSLDLQMSGLRAEDTAIYYCTRGWGPFDYWGQGTLVTVSSEPKSSDKTHTCPPCPAPEAAGGPSVFLFPPKPKDTLMISRTPEVTCVVVSVSHEDPEVKFNWYVDGVEVHNAKTKPREEQYNSTYRVVSVLTVLHQDWLNGKEYKCKVSNKALPAPIEKTISKAKGQPREPQVYVYPPSREEMTKNQVSLTCLVKGFYPSDIAVEWESNGQPENNYKTTPPVLDSDGSFALVSKLTVDKSRWQQGNVFSCSVMHEALHNHYTQKSLSLSPGK
heavy: QVQLQQSGPGLVKPSQTLSLTCAISGDSVSSNRAAWNWIRQSPSRGLEWLGRTYYRSKWYNDYAVSVKSRITINPDTSKNQISLQLNSVTPEDTAVYYCARVRPGIPFDYWGQGTPVTVSSASTKGPSVFPLAPSSKSTSGGTAALGCLVKDYFPEPVTVSWNSGALTSGVHTFPAVLQSSGLYSLSSVVTVPSSSLGTQTYICNVNHKPSNTKVDKKVEPKSCDKTHTCPPCPAPEAAGGPSVFLFPPKPKDTLMISRTPEVTCVVVSVSHEDPEVKFNWYVDGVEVHNAKTKPREEQYNSTYRVVSVLTVLHQDWLNGKEYKCKVSNKALPAPIEKTISKAKGQPREPQVYVLPPSREEMTKNQVSLLCLVKGFYPSDIAVEWESNGQPENNYLTWPPVLDSDGSFFLYSKLTVDKSRWQQGNVFSCSVMHEALHNHYTQKSLSLSPG
light: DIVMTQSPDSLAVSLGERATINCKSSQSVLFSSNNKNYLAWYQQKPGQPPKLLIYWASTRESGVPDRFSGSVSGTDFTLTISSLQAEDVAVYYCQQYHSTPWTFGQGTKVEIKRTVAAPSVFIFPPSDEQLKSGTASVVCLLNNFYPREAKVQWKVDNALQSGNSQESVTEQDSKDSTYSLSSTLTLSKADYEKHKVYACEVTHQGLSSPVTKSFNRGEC
Turning to B2, in assay [1], the “Cytotoxicity, EC50” value is 0.133 nM.

B3: HC3B236 (bispecific antibody, human IgG1, kappa, L234A L235A)
scFv: QSALTQPASVSGSPGQSITISCTGTSSNIGTYKFVSWYQQHPGKAPKVMIYEVSKRPSGVSNRFSGSKSGNTASLTISGLQAEDEADYYCVSYAGSGTLLFGGGTKLTVLGGSEGKSSGSGSESKSTGGSQVQLQQSGPGLVKPSQTLSLTCAISGDSVFNNNAAWSWIRQSPSRGLEWLGRTYYRSKWLYDYAVSVKSRITINPDTSKNQFSLQLNSVTPEDTAVYYCARGYSSSFDYWGQGTLVTVSSEPKSSDKTHTCPPCPAPEAAGGPSVFLFPPKPKDTLMISRTPEVTCVVVSVSHEDPEVKFNWYVDGVEVHNAKTKPREEQYNSTYRVVSVLTVLHQDWLNGKEYKCKVSNKALPAPIEKTISKAKGQPREPQVYVYPPSREEMTKNQVSLTCLVKGFYPSDIAVEWESNGQPENNYKTTPPVLDSDGSFALVSKLTVDKSRWQQGNVFSCSVMHEALHNHYTQKSLSLSPG
heavy: QVQLQQSGPGLVKPSQTLSLTCAISGDSVSSNRAAWNWIRQSPSRGLEWLGRTYYRSKWYNDYAVSVKSRITINPDTSKNQISLQLNSVTPEDTAVYYCARVRPGIPFDYWGQGTPVTVSSASTKGPSVFPLAPSSKSTSGGTAALGCLVKDYFPEPVTVSWNSGALTSGVHTFPAVLQSSGLYSLSSVVTVPSSSLGTQTYICNVNHKPSNTKVDKKVEPKSCDKTHTCPPCPAPEAAGGPSVFLFPPKPKDTLMISRTPEVTCVVVSVSHEDPEVKFNWYVDGVEVHNAKTKPREEQYNSTYRVVSVLTVLHQDWLNGKEYKCKVSNKALPAPIEKTISKAKGQPREPQVYVLPPSREEMTKNQVSLLCLVKGFYPSDIAVEWESNGQPENNYLTWPPVLDSDGSFFLYSKLTVDKSRWQQGNVFSCSVMHEALHNHYTQKSLSLSPG
light: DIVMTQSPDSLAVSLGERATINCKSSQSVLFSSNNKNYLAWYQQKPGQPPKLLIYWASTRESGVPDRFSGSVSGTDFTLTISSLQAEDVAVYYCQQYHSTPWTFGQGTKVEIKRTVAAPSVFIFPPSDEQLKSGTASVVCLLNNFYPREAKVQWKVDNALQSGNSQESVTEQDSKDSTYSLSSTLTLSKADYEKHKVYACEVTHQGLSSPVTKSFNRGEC
With B3, the “Cytotoxicity, EC50” value in assay [1] came to 4.54 nM.

B4: CD3W234-HL-E.c. (scFv)
scFv: EVQLVESGGGLVKPGGSLRLSCAASGFTFSRYNMNWVRQAPGKGLEWVSSISTSSNYIYYADSVKGRFTFSRDNAKNSLDLQMSGLRAEDTAIYYCTRGWGPFDYWGQGTLVTVSSGTEGKSSGSGSESKSTDILLTQSPGILSVSPGERVSFSCRARQSIGTAIHWYQQRTNGSPRLLIKYASESISGIPSRFSGSGSGTDFTLTINSVESEDIADYYCQQSNSWPYTFGGGTKLEIKGPGGQHHHHHHGAYPYDVPDYAS
notes: E. coli supernatant; also called CD3B815-HL-scFV
As for B4, the “MFI (n = 2)” value in assay [2] came to 66800. Also, the binding result in assay [3] is “binds”.

B5: CD3W248-HL-E.c. (scFv)
scFv: EVQLVESGGGLVKPGGSLRLSCAASGFTFSRYNMNWVRQAPGKGLEWVSSISTSSNYIYYADSVKGRFTFSRDNAKNSLDLQMSGLRAEDTAIYYCTRGWGPFDYWGQGTLVTVSSGTEGKSSGSGSESKSTDILLTQSPGILSVSPGERVSFSCRARQSIGTAIHWYQQRTNGSPRLLIKYASESISGIPSRFSGSGSGTDFTLTINSVESEDIADYYCQQSGSWPYTFGGGTKLEIKGPGGQHHHHHHGAYPYDVPDYAS
notes: E. coli supernatant
Regarding B5, the “MFI (n = 2)” value in assay [2] was 60400. In addition, the binding result in assay [3] is listed as “binds”.

B6: CD3W245-HL-E.c. (scFv)
scFv: EVQLVESGGGLVKPGGSLRLSCAASGFTFSRYNMNWVRQAPGKGLEWVSSISTSSNYIYYADSVKGRFTFSRDNAKNSLDLQMSGLRAEDTAIYYCTRGWGPFDYWGQGTLVTVSSGTEGKSSGSGSESKSTDIQMTQSPSSLSASVGDRVTITCRARQSIGTAIHWYQQKPGKAPKLLIKYASESISGVPSRFSGSGSGTDFTLTISSLQPEDFATYYCQQSGSWPYTFGQGTKLEIKGPGGQHHHHHHGAYPYDVPDYAS
notes: E. coli supernatant
With B6, in assay [2], the “MFI (n = 2)” value was 178000. Besides, the binding result in assay [3] is on record as “binds”.

B7: CD3W241-HL-E.C. (scFv)
chain: EVQLVESGGGLVKPGGSLRLSCAASGFTFSRYNMNWVRQAPGKGLEWVSSISTSSNYIYYADSVKGRFTFSRDNAKNSLDLQMSGLRAEDTAIYYCTRGWGPFDYWGQGTLVTVSSGTEGKSSGSGSESKSTDIQMTQSPSSLSASVGDRVTITCRARQSIGTAIHWYQQKPGKAPKLLIYYASESISGVPSRFSGSGSGTDFTLTISSVQPEDFATYYCQQSNSWPYTFGQGTKLEIKGPGGQHHHHHHGAYPYDVPDYAS
Regarding B7, in assay [2], the “MFI (n = 2)” value is 121000.

B8: CD3W242-HL-E.c. (scFv)
scFv: EVQLVESGGGLVKPGGSLRLSCAASGFTFSRYNMNWVRQAPGKGLEWVSSISTSSNYIYYADSVKGRFTFSRDNAKNSLDLQMSGLRAEDTAIYYCTRGWGPFDYWGQGTLVTVSSGTEGKSSGSGSESKSTDIQMTQSPSSLSASVGDRVTITCRARQSIGTAIHWYQQKPGKAPKLLIKYASESISGVPSRFSGSGSGTDFTLTISSLQPEDFATYYCQQSNSWPYTFGQGTKLEIKGPGGQHHHHHHGAYPYDVPDYAS
notes: E. coli supernatant
On to B8, for which, in assay [2], the “MFI (n = 2)” value stood at 126000. For the same molecule, the binding result in assay [3] was “binds”.

B9: CD3W238-HL-E.c. (scFv)
scFv: EVQLVESGGGLVKPGGSLRLSCAASGFTFSRYNMNWVRQAPGKGLEWVSSISTSSNYIYYADSVKGRFTFSRDNAKNSLDLQMSGLRAEDTAIYYCTRGWGPFDYWGQGTLVTVSSGTEGKSSGSGSESKSTDIQMTQSPSSLSASVGDRVTITCRARQSIGTAIHWYQQKPGKAPKLLIYYASESISGVPSRFSGSGSGTDFTLTISSLQPEDFATYYCQQSNSWPYTFGQGTKLEIKGPGGQHHHHHHGAYPYDVPDYAS
notes: E. coli supernatant
As to B9, the “MFI (n = 2)” value in assay [2] turned out to be 137000. Besides, the binding result in assay [3] is given as “binds”.

B10: HC3B214 (bispecific antibody, human IgG1, kappa, L234A L235A)
heavy: EVQLVESGGGLVKPGGSLRLSCAASGFTFSRYNMNWVRQAPGKGLEWVSSISTSSNYIYYADSVKGRFTFSRDNAKNSLDLQMSGLRAEDTAIYYCTRGWGPFDYWGQGTLVTVSSASTKGPSVFPLAPSSKSTSGGTAALGCLVKDYFPEPVTVSWNSGALTSGVHTFPAVLQSSGLYSLSSVVTVPSSSLGTQTYICNVNHKPSNTKVDKKVEPKSCDKTHTCPPCPAPEAAGGPSVFLFPPKPKDTLMISRTPEVTCVVVSVSHEDPEVKFNWYVDGVEVHNAKTKPREEQYNSTYRVVSVLTVLHQDWLNGKEYKCKVSNKALPAPIEKTISKAKGQPREPQVYVYPPSREEMTKNQVSLTCLVKGFYPSDIAVEWESNGQPENNYKTTPPVLDSDGSFALVSKLTVDKSRWQQGNVFSCSVMHEALHNHYTQKSLSLSPG
light: DIQMTQSPSSLSASVGDRVTITCRARQSIGTAIHWYQQKPGKAPKLLIKYASESISGVPSRFSGSGSGTDFTLTISSVQPEDFATYYCQQSGSWPYTFGQGTKLEIKRTVAAPSVFIFPPSDEQLKSGTASVVCLLNNFYPREAKVQWKVDNALQSGNSQESVTEQDSKDSTYSLSSTLTLSKADYEKHKVYACEVTHQGLSSPVTKSFNRGEC
scFv: not shown
For B10, the “Cytotoxicity, EC50” value in assay [1] turned out to be 0.138 nM.
